Measured values: patent US20230331811A1 (CCOA THERAPEUTICS, published 2023)

Key:
[1] = target: T1, Recombinant human ectodomain αIIbβ3, activated (high-affinity ligand binding conformation) (human, UniProt P08514 32-993; P05106 27-718, carboxyl groups coupled to the DETA silane layer by EDC/sulfo-NHS); test: flow cytometry sandwich assay on αIIbβ3 coupled beads (anti-fibrinogen mouse IgG, FITC-labelled detection antibody), apparent Kd
T1 construct: Also used here for the ELISA plate coated in a buffer with the same cations
T1 sequence (P08514 other isoform, or with tags, fused parts or gaps limits assumed, chain 1 of 2): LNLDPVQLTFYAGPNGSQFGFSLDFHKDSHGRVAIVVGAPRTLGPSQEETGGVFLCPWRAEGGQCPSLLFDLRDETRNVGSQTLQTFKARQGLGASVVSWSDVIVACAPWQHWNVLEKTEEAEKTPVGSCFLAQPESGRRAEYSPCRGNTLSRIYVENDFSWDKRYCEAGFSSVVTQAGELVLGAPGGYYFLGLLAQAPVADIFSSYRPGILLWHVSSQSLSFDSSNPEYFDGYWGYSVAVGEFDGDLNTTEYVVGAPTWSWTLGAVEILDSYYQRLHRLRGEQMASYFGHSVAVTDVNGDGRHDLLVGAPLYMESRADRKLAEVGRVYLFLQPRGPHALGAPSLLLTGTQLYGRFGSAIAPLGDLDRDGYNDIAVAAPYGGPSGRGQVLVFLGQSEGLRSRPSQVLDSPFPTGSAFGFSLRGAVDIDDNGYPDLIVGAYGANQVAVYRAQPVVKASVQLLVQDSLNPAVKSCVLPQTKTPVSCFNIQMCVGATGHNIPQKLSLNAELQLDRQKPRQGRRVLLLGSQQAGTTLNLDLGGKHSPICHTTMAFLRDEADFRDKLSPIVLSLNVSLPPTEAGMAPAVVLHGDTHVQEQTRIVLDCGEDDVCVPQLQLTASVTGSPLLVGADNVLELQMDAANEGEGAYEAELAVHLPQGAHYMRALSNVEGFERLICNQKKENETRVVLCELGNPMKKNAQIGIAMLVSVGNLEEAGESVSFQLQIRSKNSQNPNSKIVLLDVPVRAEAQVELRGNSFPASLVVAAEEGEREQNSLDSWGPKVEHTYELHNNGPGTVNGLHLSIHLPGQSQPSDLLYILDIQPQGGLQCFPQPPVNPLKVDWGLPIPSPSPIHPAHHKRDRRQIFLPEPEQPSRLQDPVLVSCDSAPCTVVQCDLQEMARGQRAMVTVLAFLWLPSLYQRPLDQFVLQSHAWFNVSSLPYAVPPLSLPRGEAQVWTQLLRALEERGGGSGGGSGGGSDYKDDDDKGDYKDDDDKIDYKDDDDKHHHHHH
T1 sequence (P05106 other isoform, or with tags, fused parts or gaps limits assumed, chain 2 of 2): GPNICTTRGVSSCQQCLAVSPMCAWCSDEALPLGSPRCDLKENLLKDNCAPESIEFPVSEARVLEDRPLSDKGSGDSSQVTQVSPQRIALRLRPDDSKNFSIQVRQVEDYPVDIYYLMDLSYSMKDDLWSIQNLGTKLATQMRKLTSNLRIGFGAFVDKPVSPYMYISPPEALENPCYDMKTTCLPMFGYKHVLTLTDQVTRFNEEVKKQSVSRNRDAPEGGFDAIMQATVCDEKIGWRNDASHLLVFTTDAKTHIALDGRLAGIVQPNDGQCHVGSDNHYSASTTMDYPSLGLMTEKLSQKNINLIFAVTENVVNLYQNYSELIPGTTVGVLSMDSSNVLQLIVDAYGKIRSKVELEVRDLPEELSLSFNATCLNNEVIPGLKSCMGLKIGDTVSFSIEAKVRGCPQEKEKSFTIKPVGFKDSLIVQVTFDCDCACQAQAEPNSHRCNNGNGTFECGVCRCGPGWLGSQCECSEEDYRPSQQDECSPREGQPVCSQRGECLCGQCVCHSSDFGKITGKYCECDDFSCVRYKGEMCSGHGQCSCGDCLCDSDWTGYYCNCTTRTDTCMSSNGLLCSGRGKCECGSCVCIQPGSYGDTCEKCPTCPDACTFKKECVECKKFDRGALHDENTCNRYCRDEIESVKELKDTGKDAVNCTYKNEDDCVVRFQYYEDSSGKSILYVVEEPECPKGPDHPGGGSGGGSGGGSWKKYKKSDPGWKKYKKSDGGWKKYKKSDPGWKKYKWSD

[2] = target: T1, Recombinant human ectodomain αIIbβ3, …; test: flow cytometry dose-response of Alexa488-fibrinogen on activated αIIbβ3 beads, DETA signal subtracted, one site specific binding fit
Procedure: 3 μL of 1×10⁸ beads/mL were mixed with the desired concentration of fluorescently labelled antibody or ligand to a final volume of 100 μL in PBS and incubated for 1 h. Following incubation, the samples were diluted to a final volume of 1 mL and flow cytometrically analyzed. Samples that were compared with one another were run on the same instrument under the same instrumental conditions (signal gain, flow rate etc.). Any differences in absolute mean fluorescence intensity (MFI) value between different experiments was due to variance between the two.
αIIbβ3 Coupled Bead Flow Cytometry Analysis. […] Ferromagnetic silica particles at each stage of the coating fabrication process were analyzed with flow cytometry for binding to (FIGS. 2A and 2B) PSI E1, and (FIG. 2C to 2F) fibrinogen. […] After the activation step, the beads were analyzed with flow cytometry for binding of Alexa488™ labelled fibrinogen (native αIIbβ3 ligand) and PAC-1 (an antibody specific for the active upright conformation of αIIbβ3) (See Table 2, FIGS. 2G to 2I). […] All analyses conducted as n≥3, data presented as mean±SD, analyzed with a two-tailed t-test, ns=not significant *P<0.05, **P<0.01, ***P<0.001 and ****P<0.0001.

[3] = target: T1, Recombinant human ectodomain αIIbβ3, …; test: sandwich ELISA, αIIbβ3 coated on a 96-well plate in a buffer with Mg2+, Mn2+ and Ca2+ (anti-fibrinogen mouse IgG, anti-mouse IgG-HRP)
Procedure: Fibrinogen ELISA Assay. To ensure similar immobilization levels of recombinant human ectodomain aIIbβ3 between the ELISA plate and integrin coupled magnetic beads, the wells of a 96-well micro plate (Nunc MaxiSorp) were incubated with the same aIIbβ3 concentration per surface area as during the preparation of the magnetic beads, 6.6×10⁴ μg·mL⁻¹·c⁻². Each well was coated with aIIbβ3 or control proteins (BSA and β3−/− platelet lysate) by incubation of 6 μg/μL protein in binding buffer (TRIS buffered saline with 0.05% TWEEN-20 and 1 mM each of MgCl₂, MnCl₂ and CaCl₂)) at 4° C. overnight. Incubation of 3% skim milk (ED Millipore) and 2% TWEEN-20 for 1 hour at 37° C. was used for blocking. The concentration of aIIbβ3 per surface area of bead used when coating SAM coated beads is 6.6×10⁴ μg·mL⁻¹·cm⁻², therefore the wells of 96 well plates used were coated with the same density EDC/NHS quenching achieved by increase pH to 8.6. Bead concentration for synthesis: 6×10⁹ beads·mL⁻¹; Integrin-bead reaction concentration=250 μg·mL⁻¹; Integrin Used=6.6×10⁴ μg·mL⁻¹·cm⁻²; Well Surface Area (50 μL)=0.93 cm²; Concentration/wee for ELISA=6×10⁴ μg·mL⁻¹ (6 μL/well in 50 μL total volume); Stock [αIIbβ3]=5×10⁵ μg·mL⁻¹.
Fibrinogen binding. […] The OPD peroxidase reaction was stopped after 1 hour with 2 M H₂SO₄ and the absorbance was read at 492 nm. […]

B1: Fibrinogen (ligand)
alpha: ADSGEGDFLAEGGGVRGPRVVERHQSACKDSDWPFCSDEDWNYKCPSGCRMKGLIDEVNQDFTNRINKLKNSLFEYQKNNKDSHSLTTNIMEILRGDFSSANNRDNTYNRVSEDLRSRIEVLKRKVIEKVQHIQLLQKNVRAQLVDMKRLEVDIDIKIRSCRGSCSRALAREVDLKDYEDQQKQLEQVIAKDLLPSRDRQHLPLIKMKPVPDLVPGNFKSQLQKVPPEWKALTDMPQMRMELERPGGNEITRGGSTSYGTGSETESPRNPSSAGSWNSGSSGPGSTGNRNPGSSGTGGTATWKPGSSGPGSTGSWNSGSSGTGSTGNQNPGSPRPGSTGTWNPGSSERGSAGHWTSESSVSGSTGQWHSESGSFRPDSPGSGNARPNNPDWGTFEEVSGNVSPGTRREYHTEKLVTSKGDKELRTGKEKVTSGSTTTTRRSCSKTVTKTVIGPDGHKEVTKEVVTSEDGSDCPEAMDLGTLSGIGTLDGFRHRHPDEAAFFDTASTGKTFPGFFSPMLGEFVSETESRGSESGIFTNTKESSSHHPGIAEFPSRGKSSSYSKQFTSSTSYNRGDSTFESKSYKMADEAGSEADHEGTHSTKRGHAKSRPVRGIHTSPLGKPSLSP
beta: QGVNDNEEGFFSARGHRPLDKKREEAPSLRPAPPPISGGGYRARPAKAAATQKKVERKAPDAGGCLHADPDLGVLCPTGCQLQEALLQQERPIRNSVDELNNNVEAVSQTSSSSFQYMYLLKDLWQKRQKQVKDNENVVNEYSSELEKHQLYIDETVNSNIPTNLRVLRSILENLRSKIQKLESDVSAQMEYCRTPCTVSCNIPVVSGKECEEIIRKGGETSEMYLIQPDSSVKPYRVYCDMNTENGGWTVIQNRQDGSVDFGRKWDPYKQGFGNVATNTDGKNYCGLPGEYWLGNDKISQLTRMGPTELLIEMEDWKGDKVKAHYGGFTVQNEANKYQISVNKYRGTAGNALMDGASQLMGENRTMTIHNGMFFSTYDRDNDGWLTSDPRKQCSKEDGGGWWYNRCHAANPNGRYYWGGQYTWDMAKHGTDDGVVWMNWKGSWYSMRKMSMKIRPFFPQQ
gamma: YVATRDNCCILDERFGSYCPTTCGIADFLSTYQTKVDKDLQSLEDILHQVENKTSEVKQLIKAIQLTYNPDESSKPNMIDAATLKSRKMLEEIMKYEASILTHDSSIRYLQEIYNSNNQKIVNLKEKVAQLEAQCQEPCKDTVQIHDITGKDCQDIANKGAKQSGLYFIKPLKANQQFLVYCEIDGSGNGWTVFQKRLDGSVDFKKNWIQYKEGFGHLSPTGTTEFWLGNEKIHLISTQSAIPYALRVELEDWNGRTSTADYAMFKVGPEADKYRLTYAYFAGGDAGDAFDGFDFGDDPSDKFFTSHNGMQFSTWDNDNDKFEGNCAEQDGSGWWMNKCHAGHLNGVYYQGGTYSKASTPNGYDNGIIWATWKTRWYSMKKTTMKIIPFNRLTIGEGQQHHLGGAKQAGDV
modifications: Alexa 488 dye on lysines (positions not stated) in the results at the 2nd table and paragraph 103; unlabelled in the sandwich assay of paragraph 112. The native protein is a disulfide-linked dimer of the three chains; each chain is given once.
notes: It calls the protein 'bivalent fibrinogen'; also called Fg; Alexa488 labelled fibrinogen
Binder B1 has a Kd [1] of 210 nM, a Kd [2] of 78 nM and a Kd [3] of 2200 nM.
